Results from patent publication US20240182536A1 (MURAL ONCOLOGY, published 2024).

T1: IL-18 receptors on HEK-Blue IL-18 reporter cells (UniProt Q13478 19-541; O95256 20-599, limits assumed)
T1 sequence (looked up) 1: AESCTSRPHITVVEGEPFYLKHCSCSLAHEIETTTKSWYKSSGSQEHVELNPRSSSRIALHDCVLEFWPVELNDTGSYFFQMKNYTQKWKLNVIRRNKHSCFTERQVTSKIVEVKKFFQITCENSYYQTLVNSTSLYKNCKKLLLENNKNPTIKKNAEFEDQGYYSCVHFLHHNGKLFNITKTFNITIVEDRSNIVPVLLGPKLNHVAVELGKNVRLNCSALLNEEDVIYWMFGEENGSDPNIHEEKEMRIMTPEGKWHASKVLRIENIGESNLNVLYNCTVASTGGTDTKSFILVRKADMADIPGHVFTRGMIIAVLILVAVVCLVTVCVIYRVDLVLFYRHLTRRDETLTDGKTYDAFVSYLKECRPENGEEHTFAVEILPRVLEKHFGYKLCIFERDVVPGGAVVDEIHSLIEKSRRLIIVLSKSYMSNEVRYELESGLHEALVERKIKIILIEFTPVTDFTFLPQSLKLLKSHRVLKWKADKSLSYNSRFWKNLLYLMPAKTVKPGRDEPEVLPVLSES
T1 sequence (looked up) 2: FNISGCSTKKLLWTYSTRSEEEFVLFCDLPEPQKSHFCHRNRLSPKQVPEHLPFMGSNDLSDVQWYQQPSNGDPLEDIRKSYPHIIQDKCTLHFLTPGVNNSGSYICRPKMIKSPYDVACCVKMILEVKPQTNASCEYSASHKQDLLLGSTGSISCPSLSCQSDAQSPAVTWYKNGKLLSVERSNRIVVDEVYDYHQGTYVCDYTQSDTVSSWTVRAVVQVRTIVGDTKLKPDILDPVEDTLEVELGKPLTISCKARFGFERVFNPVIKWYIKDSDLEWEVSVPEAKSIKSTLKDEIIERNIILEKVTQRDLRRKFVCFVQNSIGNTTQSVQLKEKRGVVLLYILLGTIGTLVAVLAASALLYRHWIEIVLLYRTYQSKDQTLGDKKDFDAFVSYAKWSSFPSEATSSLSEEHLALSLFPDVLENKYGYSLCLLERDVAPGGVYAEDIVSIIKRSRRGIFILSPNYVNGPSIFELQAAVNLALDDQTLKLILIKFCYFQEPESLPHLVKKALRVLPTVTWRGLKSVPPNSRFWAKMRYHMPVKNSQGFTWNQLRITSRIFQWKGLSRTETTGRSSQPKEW

T2: IL-18 binding protein (IL-18BP) (UniProt O95998 31-194)
T2 sequence (looked up): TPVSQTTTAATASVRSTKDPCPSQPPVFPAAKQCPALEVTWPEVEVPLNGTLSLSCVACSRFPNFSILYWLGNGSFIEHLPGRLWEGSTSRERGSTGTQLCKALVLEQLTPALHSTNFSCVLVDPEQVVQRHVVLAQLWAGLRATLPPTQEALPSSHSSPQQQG

B1: IL-18 variant G3E, E6H, R27S, D54A, S55T, T63S, N91F, R104S (ligand)
chain: YFEKLHSKLSVIRNLNDQVLFIDQGNSPLFEDMTDSDMRDNAPRTIFIISMYKATQPRGMAVSISVKSEKISTLSSENKIISFKEMNPPDFIKDTKSDIIFFQSSVPGHDNKMQFESSSYEGYFLASEKERDLFKLILKKEDELGDRSIMFTVQNED
B2: IL-18 variant G3L, E6N, I22M, T63V, N91T, R104P (ligand)
chain: YFLKLNSKLSVIRNLNDQVLFMDQGNRPLFEDMTDSDMRDNAPRTIFIISMYKDSQPRGMAVVISVKSEKISTLSSENKIISFKEMNPPDTIKDTKSDIIFFQPSVPGHDNKMQFESSSYEGYFLASEKERDLFKLILKKEDELGDRSIMFTVQNED
B3: IL-18 variant E6D, D54T, S55W, T63S, N91S, R104T (ligand)
chain: YFGKLDSKLSVIRNLNDQVLFIDQGNRPLFEDMTDSDMRDNAPRTIFIISMYKTWQPRGMAVSISVKSEKISTLSSENKIISFKEMNPPDSIKDTKSDIIFFQTSVPGHDNKMQFESSSYEGYFLASEKERDLFKLILKKEDELGDRSIMFTVQNED
B4: IL-18 variant G3I, E6Q, N91M, R104Y (ligand)
chain: YFIKLQSKLSVIRNLNDQVLFIDQGNRPLFEDMTDSDMRDNAPRTIFIISMYKDSQPRGMAVTISVKSEKISTLSSENKIISFKEMNPPDMIKDTKSDIIFFQYSVPGHDNKMQFESSSYEGYFLASEKERDLFKLILKKEDELGDRSIMFTVQNED
B5: IL-18 variant G3D, E6Q, R27S, K53R, D54A, S55R, T63S, N91Q (ligand)
chain: YFDKLQSKLSVIRNLNDQVLFIDQGNSPLFEDMTDSDMRDNAPRTIFIISMYRARQPRGMAVSISVKSEKISTLSSENKIISFKEMNPPDQIKDTKSDIIFFQRSVPGHDNKMQFESSSYEGYFLASEKERDLFKLILKKEDELGDRSIMFTVQNED
B6: IL-18 variant E6G, D54A, S55K, T63S, N91K, Q114R (ligand)
chain: YFGKLGSKLSVIRNLNDQVLFIDQGNRPLFEDMTDSDMRDNAPRTIFIISMYKAKQPRGMAVSISVKSEKISTLSSENKIISFKEMNPPDKIKDTKSDIIFFQRSVPGHDNKMRFESSSYEGYFLASEKERDLFKLILKKEDELGDRSIMFTVQNED
B7: IL-18 variant G3V, E6Q, T34P, D54M, S55F, N91R, R104H (ligand)
chain: YFVKLQSKLSVIRNLNDQVLFIDQGNRPLFEDMPDSDMRDNAPRTIFIISMYKMFQPRGMAVTISVKSEKISTLSSENKIISFKEMNPPDRIKDTKSDIIFFQHSVPGHDNKMQFESSSYEGYFLASEKERDLFKLILKKEDELGDRSIMFTVQNED
B8: IL-18 variant N91S, R104H (ligand)
chain: YFGKLESKLSVIRNLNDQVLFIDQGNRPLFEDMTDSDMRDNAPRTIFIISMYKDSQPRGMAVTISVKSEKISTLSSENKIISFKEMNPPDSIKDTKSDIIFFQHSVPGHDNKMQFESSSYEGYFLASEKERDLFKLILKKEDELGDRSIMFTVQNED
B9: IL-18 variant G3S, E6Q, K53N, D54T, S55N, T63A, I80T, N91S (ligand)
chain: YFSKLQSKLSVIRNLNDQVLFIDQGNRPLFEDMTDSDMRDNAPRTIFIISMYNTNQPRGMAVAISVKSEKISTLSSENKTISFKEMNPPDSIKDTKSDIIFFQRSVPGHDNKMQFESSSYEGYFLASEKERDLFKLILKKEDELGDRSIMFTVQNED
B10: IL-18 variant G3H, E6Q, K53N, D54S, S55P, T63A, N91I, R104S (ligand)
chain: YFHKLQSKLSVIRNLNDQVLFIDQGNRPLFEDMTDSDMRDNAPRTIFIISMYNSPQPRGMAVAISVKSEKISTLSSENKIISFKEMNPPDIIKDTKSDIIFFQSSVPGHDNKMQFESSSYEGYFLASEKERDLFKLILKKEDELGDRSIMFTVQNED
B11: IL-18 variant G3L, E6Q, D54Y, S55P, T63S, N91S, R104Q (ligand)
chain: YFLKLQSKLSVIRNLNDQVLFIDQGNRPLFEDMTDSDMRDNAPRTIFIISMYKYPQPRGMAVSISVKSEKISTLSSENKIISFKEMNPPDSIKDTKSDIIFFQQSVPGHDNKMQFESSSYEGYFLASEKERDLFKLILKKEDELGDRSIMFTVQNED

Key:
[1] = target: T1, IL-18 receptors on HEK-Blue IL-18 …; assay: cell-based or functional assay
[2] = target: T2, IL-18 binding protein (IL-18BP); assay: cell-based or functional assay

Binder | Activity, No BP, DF-100000 [1] | Activity, No BP, DF-500000 [1] | Activity, No BP, DF-2500000 [1] | Activity, +100 nM BP, DF-1000002 [2] | Activity, +100 nM BP, DF-5000003 [2] | Activity, +100 nM BP, DF-25000004 [2] | Ratio (-BP/+BP), DF-1000005 [2] | Ratio (-BP/+BP), DF-5000006 [2] | Ratio (-BP/+BP), DF-25000007 [2]
B1 | 2.08 | 1.83 | 1.14 | 1.8 | 1.11 | 0.41 | 1.16 | 1.65 | 2.79
B2 | 0.08 | 0.07 | 0.07 | 0.09 | 0.09 | 0.07 | 0.8 | 0.82 | 0.97
B3 | 1.27 | 0.55 | 0.18 | 0.37 | 0.15 | 0.1 | 3.41 | 3.62 | 1.93
B4 | 2.12 | 2 | 1.53 | 1.84 | 0.96 | 0.29 | 1.15 | 2.07 | 5.26
B5 | 1.02 | 0.41 | 0.13 | 0.52 | 0.15 | 0.09 | 1.95 | 2.81 | 1.5
B6 | 2.2 | 2.05 | 1.61 | 1.89 | 1.33 | 0.49 | 1.17 | 1.54 | 3.3
B7 | 0.97 | 0.41 | 0.13 | 0.14 | 0.08 | 0.08 | 6.88 | 4.95 | 1.77
B8 | 1.34 | 0.61 | 0.19 | 0.09 | 0.08 | 0.11 | 14.7 | 7.35 | 1.72
B9 | 0.24 | 0.11 | 0.08 | 0.23 | 0.11 | 0.11 | 1.05 | 1.03 | 0.71
B10 | 0.18 | 0.09 | 0.07 | 0.21 | 0.12 | 0.08 | 0.86 | 0.78 | 0.91
B11 | 1.66 | 0.9 | 0.37 | 0.75 | 0.19 | 0.1 | 2.23 | 4.67 | 3.8
